Data on 13 molecules can be found in patent publication US5821046A, “RNA oligonucleotides that bind HIV tat protein” (RiboTargets Holdings PLC, priority 1990, dated 1998).

By Kd is commonly meant the equilibrium constant for the complex coming apart.

Series [1] relates to HIV-1 tat protein. The series is classed as binding. The settings on record: 32P-labeled RNA transcript, 0 to 600 ng tat. The method, then: i) Gel retardation assays (FIG. 6) Method RNA transcripts were prepared by transcription with either T3 or T7 RNA polymerases of TAR regions residues +1 to +57, cloned between the HindIII and EcoRI sites of the Bluescribe M13+expression vector (Stratagene). RNA transcripts corresponding to HIV-1 TAR [SEQ ID NO: 1], SSA [SEQ ID NO: 3], SAA and SAS [SEQ ID NO: 5] were synthesized from clones linearized with EcoRI and transcribed with T3 RNA polymerase. RNA transcripts corresponding to the antisense HIV-1 TAR […], AAS , ASS [SEQ ID NO: 4], and ASA (not shown) sequences were prepared from the same plasmids linearized with HindIII and transcribed using T7 RNA polymerase. All other RNA molecules were synthesized using T3 RNA polymerase following EcoRI cleavage of the plasmid vector. The RNA products each carry 13 nucleotides of vector sequence at their 5' end and four nucleotides at their 3' ends. […] Transcription mixtures contained 1 ug linearized plasmid, 40 mM Tris-HCl pH 8.0, 10 mM MgCl 2, 2 mM Spermidine-HCl, 50 mM NaCl, 100 uM each ribonucleotide triphosphate, 40 uCi (alpha-^32 P) UTP (410 Ci/m mol) and 10 units of RNA polymerase in a final volume of 30 ul and were incubated at 37° C. for 30 minutes. After phenol extraction and precipitation from ethanol the RNA was purified from a 9% polyacrylamide denaturing gel. The specific activity of the RNA product was determined and appropriate amounts were used in binding assays. Binding reaction mixtures (1 5ul) contained 1 ng of uniformly labeled RNA probe, 0.5 ug calf thymus DNA, 0.2 ug yeast TRNA, 40 units RNAsin (Promega), 50 mM Tris-HCl and 20 mM KCl and 0 to 600 ng tat protein, prepared from E. coli beta-galactosidase-tat fusion proteins, as described previously (6). After incubation at either 30° C. or 4° C. for 10-20 minutes, the reaction mixtures were applied to a 6% non-denaturing polyacrylamide gel (Acrylamide: Bis, 40:0.5) in 3.3 mM sodium acetate, 6.7 mM Tris (adjusted to pH 7.9 with HCl). The gel buffer was recirculated during electrophoresis at 35 mA for approximately 2 hours at room temperature. Gels were dried and exposed to X-ray film at -80° C. using intensifying screens.

Series [2] relates to HIV-1 tat protein. Briefly: direct filter binding assay of tat to TAR RNA (saturation binding, Scatchard analysis). The settings on record: direct filter binding; HIV-1 TAR from saturation binding/Scatchard plot, mutants estimated from half-maximal binding; read-out: Kd (dissociation constant of tat binding). The method, then: The results shown graphically in FIG. 4 are from experiments in which binding reactions (500 ul) contained 40 nMolar^32 P uniformly radiolabelled TAR RNA at a specific activity of 100,000 Ci/mole; 0.5 ug calf thymus DNA; 0.2 ug yeast TRNA; 40 units RNAsin (Promega); 50mm Tris-HCl pH 7.9 and 20 mM KCl. Reaction mixtures were set up on ice and increasing amounts of HIV-1 tat protein were added and the reaction mixtures were filtered through prewashed nitrocellulose filters (Millipore 0.45 uM pore size). The filters were dried and counted by liquid scintillation counting. The fraction of radiolabeled RNA bound was plotted against HIV-1 tat concentration.
Binding was measured by a filter-binding assay as described below under "Method", using monomeric tat protein prepared by CNBr cleavage of a human growth hormone-tat fusion protein expressed in E. coli. Reactions for saturation binding contained labeled TAR RNA [SEQ ID NO: 1] or antisense TAR RNA [SEQ ID NO: 6] at 10 nm and between 0 to 300 nM purified tat protein. Antisense TAR RNA was used as a control, since antisense TAR is unable to form stable complexes with tat in gel-retardation assays (Dingwall et al., 1989).
The stoichiometry of the tat/TAR interaction was determined by varying the TAR RNA concentrations over a wide range, while keeping the tat protein concentration constant near the Kd. For this Scatchard analysis, the tat protein concentration was held constant at 40 nM and the RNA concentration was varied between 7nM and 320 nM. The total amount of labeled RNA was kept constant in the binding reactions, but the specific activity of the RNA was varied. […]
Tat protein was prepared either from beta-galactosidase-tat fusion proteins (6) or from human growth-hormone-tat fusion proteins (85) using an improved method. In brief, inclusion body pellets containing the fusion protein were solubilized in 7M GdHCl, 50 mM Tris-HCl pH8.0, 2 mM EDTA, 2mM DTT and the fusion protein was purified to near homogeneity by ion-exchange chromatography on Q-Sepharose and S-Sepharose (Pharmacia) in buffers containing […], 50 mM Tris-HCl pH8.0, 2mM EDTA, 2mM DTT. The cysteine residues were protected by disulphide-exchange with 20 mM 2-hydroxyethyldisulphide (86), and the protein was cleaved by cyanogen bromide (6). The basic tat protein was then separated from the acidic human growth hormone peptides by ion-exchange chromatography on Q-Sepharose and S-Sepharose in 6M Urea. The protecting groups were then removed from the protein by addition of 10 mM DTT and the protein refolded by stepwise dialysis against 6 m Urea, 5M Urea,3M Urea, 1M Urea and 0M Urea in a buffer containing 50 mM Tris-HCl pH8.0, 100 uM DTT, 10 uM ZnCl2 Tat protein refolded in this manner elutes as a monomer from Superose 12 columns (Pharmacia) and migrates as a single band on polyacrylamide gels. Protein prepared by both methods behaved comparably in binding assays.
A wide variety of parameters affecting the binding of tat protein to TAR RNA were studied and binding conditions were optimized. Binding of tat to TAR has a distinct pH optimum at pH 8.0, but good binding is observed between pH 7.5 and pH 8.5. Tat/TAR complexes are very sensitive to ionic strength. […] Addition of Zn^+2, Cd^+2, Ca^+2, Mg,^+2, Fe^+2 or Fe^+3 ions to the reaction mixtures […]. However, the binding reaction is sensitive to EDTA at greater than 0.1 mM EDTA. Complex formation is also somewhat temperature sensitive. Optimal binding is observed at 0°C. Between 15° C. and 30° C. there is a 30% reduction in complex formation. […]

The test system of series [3] is HIV-1 tat protein. Briefly: competition filter binding assay, mutant TAR transcripts against labelled HIV-1 TAR RNA (FIG. 7, Table 1). The settings on record: 20 nM TAR RNA, 40 nM tat protein.
Protocol: Binding reactions (500 ul) were set up on ice and contained 80 pM ^32 P-labeled TAR RNA (17,600 dpm, 200 uCi/n mol) and unlabeled TAR RNA to give a final concentration of 20 nM, 0.5 ug calf thymus DNA, 0.2 ug yeast tRNA, 40 units RNAsin (Promega), 50 mM Tris HCl and 20 mM KCl. After addition of competitor RNA, binding was initiated by addition of HIV-1 tat protein to a final concentration of 400 ng/ml (40 nM). The binding reaction mixtures were then filtered under reduced pressure through pre-washed nitrocellulose filters (Millipore 0.45 uM pore size) and filters were dried and counted by liquid scintillation counting.
The fraction of^32 P-labeled TAR RNA bound was plotted against the final concentration of competitor RNA. In these experiments reactions included 20 nM TAR and 40 nM tat protein and increasing amounts of unlabeled competitor RNA from 40 nm to 6 uM. […] In theory, 40 nM tat will bind 50% of the input TAR RNA (D1/2) when the total TAR RNA concentration is 56 nM.
For competition experiments, binding reactions (500 ul) were set up on ice and contained 80 pM ^32 P-labeled TAR RNA (17,600 dpm, 200 uCi/n mol) and unlabeled TAR RNA to give a final concentration of 20 nM, 0.5 ug calf thymus DNA, 0.2 ug yeast TRNA, 40 units RNAsin (Promega), 50 mM Tris-HCl pH 7.9 and 20 mM KCl. After addition of 0 to 6 uM competitor RNA, binding was initiated by addition of HIV- 1 tat protein to a final concentration of 400 ng/mi (40 nM). The binding reaction mixtures were then filtered under reduced pressure through pre-washed nitrocellulose filters (Millipore 0.45 u pore size) and filters were dried and counted by liquid scintillation counting.
KRel is the ratio of the D1/2 values for HIV-1 TAR and competitor RNA.
Series [4] addresses T1, HIV-1 Tat (Human immunodeficiency virus 1, UniProt P04608 P04608:1-86). Briefly: competition; D1/2; wild type 90 nM.
In series [5] the target is T1, HIV-1 Tat. Briefly: competition; D1/2; unmodified 18+15 duplex 65 nM. The settings on record: duplex with bulge.
Series [6] deals with T1, HIV-1 Tat. Briefly: competition; D1/2; unmodified 29-mer 60 nM; 29-mer probe. The settings on record: hairpin with U-rich bulge.

For “Antisense: anti-sense sequence to HIV-1 BRU TAR (antisense GGGUUCCCUAGUUAGCCAGAGAGCUCCCAGGCUCAAAUCUGGUCUAACCAGAGAGACCC; chemistry not given here) [reference compound]”, the “complex formation with tat in gel retardation assay” value with HIV-1 tat protein [1] was “No complexes were formed”. Also, in the series with HIV-1 tat protein [2], the Kd is > 140 nM.

For “HIV-2 TAR: first stem-loop structure of HIV-2 ROD TAR RNA, bulge of two uridine residues (CUGCGGAGAGGCUGGCAGAUUGAGCCCUGGGAGGUUCUCUCCAGCACUAGCAG; RNA, backbone not given here) [reference compound]”, the “KRel (ratio of D1/2 values for HIV-1 TAR and competitor RNA)” value in the series with HIV-1 tat protein [3] is reported as 0.40. The IC50 in the series with HIV-1 tat protein [3] (read-out: D1/2 (concentration of competitor RNA that reduces binding of HIV-1 tat to HIV-1 TAR RNA to 50%)) stood at 160 nM. Also, in the series on HIV-1 tat protein [1], the “complex formation with tat in gel retardation assay” value is on record as “discrete complex formation”. Further, the Kd in the series with HIV-1 tat protein [2] is 30 nM.

B1: TAR bulge CC (ssRNA)
RNA: GGGUCUCUCUGGUUAGACCAGACCGAGCCUGGGAGCUCUCUGGCUAACUAGGGAACCC
Take B1: the IC50 with HIV-1 Tat [4] was determined as 2370 nM.

B2: 18+15 duplex 4-thioT-24 (dsRNA)
RNA 1: AGCCAGAUTUGAGCAGCU
RNA 2: AGCUGCUCUCUGGCU
modifications: 4-thio-2'-deoxythymidine at U24 (nt 9) [9 (strand 1, 4-thio-2'-deoxythymidine)]
Molecule B2 registered an IC50 with HIV-1 Tat [5] of 25 nM.

Regarding GCCAGAUUUGAGCCUGGGAGCUCUCUGGC (ssRNA, 2'-OMe uridine at U23 (nt 7) [7 (2'-OMe uridine, U23)]) [29-mer 2'-OMeU-23], the IC50 in the series with HIV-1 Tat [6] came out at 50 nM.

Consider GCCAGAUUUGAGCCUGGGAGCUCUCUGGC (ssRNA, 2'-deoxyuridine at U23 (nt 7) [7 (2'-deoxyuridine, U23)]) [29-mer dU-23], for which the IC50 in the series with HIV-1 Tat [6] stood at 55 nM.

B3: TAR bulge CUC (ssRNA)
RNA: GGGUCUCUCUGGUUAGACCAGACUCGAGCCUGGGAGCUCUCUGGCUAACUAGGGAACCC
modifications: [23,25]
Regarding B3, in the series with HIV-1 Tat [4], the IC50 amounted to 2140 nM.

B4: TAR A22 to U22; U40 to A40 (ssRNA)
RNA: GGGUCUCUCUGGUUAGACCAGUUUUGAGCCUGGGAGCUCACUGGCUAACUAGGGAACCC
With B4, the IC50 with HIV-1 Tat [4] stood at 220 nM.

B5: TAR G26 to A26; C39 to U39 (ssRNA)
RNA: GGGUCUCUCUGGUUAGACCAGAUUUAAGCCUGGGAGCUUUCUGGCUAACUAGGGAACCC
In the series with HIV-1 Tat [4], B5 returned an IC50 of 631 nM.

B6: TAR C39 to G39 (ssRNA)
RNA: GGGUCUCUCUGGUUAGACCAGAUUUGAGCCUGGGAGCUGUCUGGCUAACUAGGGAACCC
As for B6, in the series with HIV-1 Tat [4], the IC50 is 1500 nM.

B7: TAR G26 to C26; C39 to G39 (ssRNA)
RNA: GGGUCUCUCUGGUUAGACCAGAUUUCAGCCUGGGAGCUGUCUGGCUAACUAGGGAACCC
In the series with HIV-1 Tat [4], B7 showed an IC50 of 2370 nM.

B8: TAR U40 to A40 (ssRNA)
RNA: GGGUCUCUCUGGUUAGACCAGAUUUGAGCCUGGGAGCUCACUGGCUAACUAGGGAACCC
B8 had an IC50 in the series with HIV-1 Tat [4] of 5620 nM.

B9: 18+15 duplex 4-thioT-23 (dsRNA)
RNA 1: AGCCAGATUUGAGCAGCU
RNA 2: AGCUGCUCUCUGGCU
modifications: 4-thio-2'-deoxythymidine at U23 (nt 8) [8 (strand 1, 4-thio-2'-deoxythymidine)]
In turn, B9 had an IC50 in the series with HIV-1 Tat [5] of 32 nM.
